Data published in patent US20150165065A1 (AVIDBIOTICS, published 2015).

Experiments:
integrin αVβ5 [1] = molecular target: T1, integrin αVβ5 (UniProt P06756 31-992; P18084 24-719); assay: phage ELISA, coated integrin, anti-M13-HRP
T1 construct: Coated on the ELISA plate

integrin αVβ3 [2] = molecular target: T2, integrin αVβ3 (UniProt P06756 31-992; P05106 27-718); assay: phage ELISA, coated integrin, anti-M13-HRP
T2 construct: Coated on the ELISA plate

integrin αVβ5 [3] = molecular target: T1, integrin αVβ5; assay: phage ELISA, coated integrin, anti-M13-HRP; remark: listed apart in the source
Method: The phage vectors were independently transformed into NEBαF′tet competent E. coli cells. Phages produced by the transformed cells were tittered and their concentrations adjusted by dilution to 10¹³ per ml. The ability of the soluble MICA molecules in each of the phage preparations was assayed by an ELISA using the intended target proteins, integrin αVβ3 or αVβ5, as capture agents on the ELISA plate. After the respective integrins were adhered to the bottoms of the wells of the ELISA plate, the wells were washed and blocked, as well known in the field. Each sample (100 μl) of phage preparation was added to wells containing αVβ3 or αVβ5, incubated and washed. The phages captured by the integrins were detected by HRP-conjugated antibody to the M13 phage coat developed with Ultra TMB-ELISA substrate and the optical densities read.

integrin αVβ5 [4] = molecular target: T1, integrin αVβ5; assay: ELISA, coated integrin, anti-MICA-HRP
integrin αVβ3 [5] = molecular target: T2, integrin αVβ3; assay: ELISA, coated integrin, anti-MICA-HRP
human NKG2D-Fc [6] = molecular target: T3, human NKG2D-Fc (human, UniProt P26718 78-216, limits assumed); assay: competition ELISA, 2 nM human NKG2D-Fc on coated WT sMICA
T3 construct: construct not described; also called human NKG2D-Fc reagent; not shown: Fc part
T3 sequence (looked up): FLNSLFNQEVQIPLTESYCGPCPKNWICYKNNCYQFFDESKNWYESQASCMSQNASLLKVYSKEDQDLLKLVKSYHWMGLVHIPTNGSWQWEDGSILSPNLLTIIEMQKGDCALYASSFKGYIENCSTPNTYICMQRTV
From the text: (§1) As for the NKG2D ligands (NKG2DLs) in the above example, we attached polypeptides directly to each of these 4 modified α1-α2 NKG2DLs using a linker peptide. The 4 His-tagged proteins (SEQ ID NOs.: 131-134) were expressed in insect cells and purified to characterize their NKG2D binding affinities and kinetic binding parameters. Using a competitive binding ELISA, we determined the relative NKG2D binding affinities of the 4 modified α1-α2 variants.

biotinylated human NKG2D [7] = molecular target: T4, biotinylated human NKG2D (human, UniProt P26718 78-216, limits assumed, biotinylated (site not stated)); assay: BLI (Octet), coated biotinylated human NKG2D, 100 nM analyte
T4 construct: Surface-coated in biolayer interferometry (Octet); also called recombinant biotinylated NKG2D
T4 sequence (looked up): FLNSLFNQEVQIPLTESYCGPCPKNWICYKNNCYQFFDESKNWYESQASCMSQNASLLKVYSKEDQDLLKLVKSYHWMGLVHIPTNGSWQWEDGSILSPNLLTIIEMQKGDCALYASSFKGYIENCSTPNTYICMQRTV

human NKG2D-Fc [8] = molecular target: T3, human NKG2D-Fc; assay: competition ELISA, human NKG2D-Fc on coated WT sMICA
From the text: as §1

biotinylated human NKG2D [9] = molecular target: T4, biotinylated human NKG2D; assay: BLI (Octet), Kd = kOFF/kON
[10] = molecular target: NKG2D receptor on NKL effector cells (human) (UniProt P26718); assay: cell-based or functional assay
mouse NKG2D-Fc = molecular target: T5, mouse NKG2D-Fc (mouse, UniProt O54709 94-232, limits assumed); assay: competition ELISA: titrated soluble protein inhibits binding of mouse NKG2D-Fc to plate-coated MICA [panel B]
T5 construct: Construct not described; also called murine NKG2D-Fc; murine NKG2D; not shown: Fc part
T5 sequence (looked up): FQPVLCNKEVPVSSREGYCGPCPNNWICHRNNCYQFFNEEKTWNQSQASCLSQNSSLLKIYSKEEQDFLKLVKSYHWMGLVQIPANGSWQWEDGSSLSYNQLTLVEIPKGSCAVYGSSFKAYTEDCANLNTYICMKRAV
From the text: as §1

biotinylated human NKG2D [11] = molecular target: T4, biotinylated human NKG2D; assay: BLI (Octet)

T2 sequence (P06756 31-992, chain 1 of 2): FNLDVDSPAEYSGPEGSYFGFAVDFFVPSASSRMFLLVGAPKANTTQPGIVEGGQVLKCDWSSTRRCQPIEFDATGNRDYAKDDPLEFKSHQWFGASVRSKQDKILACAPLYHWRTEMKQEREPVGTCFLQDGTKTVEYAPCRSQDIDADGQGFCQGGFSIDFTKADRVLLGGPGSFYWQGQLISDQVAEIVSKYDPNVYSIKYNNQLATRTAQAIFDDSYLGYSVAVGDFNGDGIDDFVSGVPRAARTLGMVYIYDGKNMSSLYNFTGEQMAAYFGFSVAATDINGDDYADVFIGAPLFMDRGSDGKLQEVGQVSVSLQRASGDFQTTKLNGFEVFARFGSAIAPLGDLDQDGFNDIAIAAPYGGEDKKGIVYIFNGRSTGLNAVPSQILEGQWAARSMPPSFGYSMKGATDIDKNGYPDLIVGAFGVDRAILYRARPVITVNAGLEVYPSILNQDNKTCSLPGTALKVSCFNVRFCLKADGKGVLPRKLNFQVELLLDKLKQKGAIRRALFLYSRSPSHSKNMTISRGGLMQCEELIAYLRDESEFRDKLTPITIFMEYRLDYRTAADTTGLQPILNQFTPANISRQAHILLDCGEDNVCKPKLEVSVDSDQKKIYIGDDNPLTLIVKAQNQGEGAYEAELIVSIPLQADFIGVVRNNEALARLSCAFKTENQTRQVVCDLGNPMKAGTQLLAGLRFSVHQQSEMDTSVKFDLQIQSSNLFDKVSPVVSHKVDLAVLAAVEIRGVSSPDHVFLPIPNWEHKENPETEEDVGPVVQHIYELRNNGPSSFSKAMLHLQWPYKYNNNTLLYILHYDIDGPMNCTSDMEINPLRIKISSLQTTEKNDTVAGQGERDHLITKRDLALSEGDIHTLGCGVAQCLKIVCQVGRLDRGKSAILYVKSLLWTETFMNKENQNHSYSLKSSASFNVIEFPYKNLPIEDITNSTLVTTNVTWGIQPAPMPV
T2 sequence (P05106 27-718, chain 2 of 2): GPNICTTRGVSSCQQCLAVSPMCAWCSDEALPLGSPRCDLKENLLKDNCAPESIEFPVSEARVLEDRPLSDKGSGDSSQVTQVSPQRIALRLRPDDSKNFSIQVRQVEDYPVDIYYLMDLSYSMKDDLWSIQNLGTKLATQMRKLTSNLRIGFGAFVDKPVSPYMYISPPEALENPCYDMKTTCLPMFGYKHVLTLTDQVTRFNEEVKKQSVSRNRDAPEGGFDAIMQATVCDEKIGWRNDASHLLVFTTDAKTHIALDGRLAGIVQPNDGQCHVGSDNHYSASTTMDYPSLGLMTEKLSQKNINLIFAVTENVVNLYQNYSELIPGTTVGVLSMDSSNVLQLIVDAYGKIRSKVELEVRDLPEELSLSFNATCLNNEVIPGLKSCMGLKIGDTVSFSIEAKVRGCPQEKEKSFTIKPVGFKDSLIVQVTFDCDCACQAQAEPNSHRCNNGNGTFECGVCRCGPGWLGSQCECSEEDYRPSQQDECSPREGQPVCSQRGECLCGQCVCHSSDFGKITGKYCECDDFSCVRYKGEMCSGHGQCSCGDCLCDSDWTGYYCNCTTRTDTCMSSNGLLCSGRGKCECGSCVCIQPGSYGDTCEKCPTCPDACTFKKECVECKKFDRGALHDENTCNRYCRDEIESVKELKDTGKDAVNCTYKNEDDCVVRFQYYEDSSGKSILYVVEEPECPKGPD
T1 sequence (P06756 31-992, chain 1 of 2): as the sequence (P06756 31-992, chain 1 of 2) above
T1 sequence (P18084 24-719, chain 2 of 2): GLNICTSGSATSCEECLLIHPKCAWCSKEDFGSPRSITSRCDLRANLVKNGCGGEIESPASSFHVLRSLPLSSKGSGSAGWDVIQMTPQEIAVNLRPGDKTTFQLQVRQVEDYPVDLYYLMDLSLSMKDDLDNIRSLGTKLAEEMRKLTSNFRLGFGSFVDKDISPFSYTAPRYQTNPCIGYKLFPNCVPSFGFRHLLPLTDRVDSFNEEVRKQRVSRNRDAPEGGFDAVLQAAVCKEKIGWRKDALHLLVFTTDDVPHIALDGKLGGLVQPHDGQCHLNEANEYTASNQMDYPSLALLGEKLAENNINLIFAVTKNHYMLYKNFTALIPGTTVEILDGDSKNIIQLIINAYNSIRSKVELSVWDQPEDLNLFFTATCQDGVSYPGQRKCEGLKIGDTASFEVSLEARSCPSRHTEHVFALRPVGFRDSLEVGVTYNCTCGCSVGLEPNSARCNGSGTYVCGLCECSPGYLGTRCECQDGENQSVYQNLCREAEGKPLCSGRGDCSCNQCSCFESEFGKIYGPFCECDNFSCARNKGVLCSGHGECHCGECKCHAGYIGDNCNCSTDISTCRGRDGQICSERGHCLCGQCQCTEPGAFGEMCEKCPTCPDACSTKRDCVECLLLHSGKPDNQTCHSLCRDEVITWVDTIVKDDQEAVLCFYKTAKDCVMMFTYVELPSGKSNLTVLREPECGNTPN

| Binder | αvβ5 signal (integrin αVβ5 [1]) | αvβ3 signal (integrin αVβ3 [2]) | IC50 (human NKG2D-Fc [6]) | koff (biotinylated human NKG2D [7]) | kon (biotinylated human NKG2D [7]) | fold better binding than WT NKG2DL (IC50) (human NKG2D-Fc [8]) | Kd (biotinylated human NKG2D [9]) | NK-mediated lysis of FGFR3-expressing P815 cells (calcein release) [10] | fold affinity increase relative to WT α1-α2 (biotinylated human NKG2D [11]) | fold reduction in the off-rate relative to WT (biotinylated human NKG2D [11]) | also measured |
| --- | --- | --- | --- | --- | --- | --- | --- | --- | --- | --- | --- |
| M13 phage pKK95 displaying MICA α3 domain with loop 1 insert 3.4 (designed binder, not shown: large carriers) TVPPMVNVTRSARGDSDHRVTCRASGFYPWNITLSWRQDGVSLSHDTQQWGDVLPDGNGTYQTWVATRICQGEEQRFTCYMEHSGNHSTHPVPSGK | 0.232 OD | 0.345 OD |  |  |  |  |  |  |  |  |  |
| M13 phage pKK112 displaying MICA α3 domain with tight loop 1 insert T-AMY (loop 1 from tendamistat) (designed binder, not shown: large carriers) TVPPMVNYQSWRYSQCRASGFYPWNITLSWRQDGVSLSHDTQQWGDVLPDGNGTYQTWVATRICQGEEQRFTCYMEHSGNHSTHPVPSGK | 0.515 OD | 0.46 OD |  |  |  |  |  |  |  |  |  |
| M13 phage pKK91 displaying MICA α3 domain with loop 3 insert His10sp (designed binder, also called 3-His10; not shown: C-terminal portion of M13 gene III protein, fused at codon position 198) TVPPMVNVTRSEASEGNITVTCRASGFYPWNITLSWRQDGVSLSHDTQQWGDVLPDGNGTYQTWVATRISGGSGGGSHHHHHHHHHHSGGSGGGCYMEHSGNHSTHPVPSGK |  | 0.303 OD |  |  |  |  |  |  |  |  | αvβ5 signal (integrin αVβ5 [3]): 0.078 OD |
| soluble MICA generated from pKK35 (loop 3 insert His10sp) (designed binder) EPHSLRYNLTVLSWDGSVQSGFLTEVHLDGQPFLRCDRQKCRAKPQGQWAEDVLGNKTWDRETRDLTGNGKDLRMTLAHIKDQKEGLHSLQEIRVCEIHEDNSTRSSQHFYYDGELFLSQNLETKEWTMPQSSRAQTLAMNVRNFLKEDAMKTKTHYHAMHADCLQELRRYLKSGVVLRRTVPPMVNVTRSEASEGNITVTCRASGFYPWNITLSWRQDGVSLSHDTQQWGDVLPDGNGTYQTWVATRISGGSGGGSHHHHHHHHHHSGGSGGGCYMEHSGNHSTHPVPSGK |  |  |  |  |  |  |  |  |  |  | αvβ5 signal (integrin αVβ5 [4]): 0.392 OD; αvβ5 signal/ng (signal/ng MICA) (integrin αVβ5 [4]): 2.31; αvβ3 signal (integrin αVβ3 [5]): 0.419 OD; αvβ3 signal/ng (signal/ng MICA) (integrin αVβ3 [5]): 2.46 |
| α1-α2 variant 15 (designed binder, His-tagged protein from insect cells, modified α1-α2 domain with an attached polypeptide) EPHSLRYNLTVLSWDGSVQSGFLTEVHLDGQPFLRCDRQKCRAKPQGQWAEDVLGNKTWDRETRDLTGWGKDLRMTLAHIKDQKEGLHSLQEIRVCEIHEDNSTRSSQHFYYDGELFLSQNLETNEWTMPQSSRAQTLAMNVRNFLKEDAMETDTHYHAMRADCLQELRRYLKSGVVLRRTVPPMVQVTRSEASGGSGDRVTITCRASQDVSTAVAWYQQKPGKAPKLLIYSASFLYSGVPSRFSGSGSGTDFTLTISSLQPEDFATYYCQQSYTTPPTFGQGTKVEIKGGSSRSSSSGGGGSGGGGEVQLVESGGGLVQPGGSLRLSCAASGFTFTSTGISWVRQAPGKGLEWVGRIYPTNGSTNYADSVKGRFTISADTSKNTAYLQMNSLRAEDTAVYYCARTYGIYDLYVDYTEYVMDYWGQGTLVTVSSGGSSRSSSSGGGGSGGGGDIQMTQSPSSLSASGGSGQITVTCRASGFYPWNITLSWRQDGVSLSHDTQQWGDVLPDGQGTYQTWVATRISQGEEQRFTCYMEHSGQHSTHPVPSGKGSHHHHHH |  |  | 1.7 nM | 0.00011 s⁻¹ | 70000 M⁻¹ s⁻¹ | 11 fold | 1.5 nM |  |  |  |  |
| α1-α2 variant 18 (designed binder, His-tagged protein from insect cells, modified α1-α2 domain with an attached polypeptide) EPHSLRYNLTVLSWDGSVQPGFLTEVHLDGQPFLRCDRQKCRAKPQGQWAEDVLGNKTWDRETRDLTLWGKDLRMTLAHIKDQKEGLHSLQEIRVCEIHEDNSTRSSQHFYYDGELFLSQNLETLEWTMPQSSRAQTLAMNVRNFLKEDAMETDTHYHAMRADCLQELRRYLKSGVVLRRTVPPMVQVTRSEASGGSGDRVTITCRASQDVSTAVAWYQQKPGKAPKLLIYSASFLYSGVPSRFSGSGSGTDFTLTISSLQPEDFATYYCQQSYTTPPTFGQGTKVEIKGGSSRSSSSGGGGSGGGGEVQLVESGGGLVQPGGSLRLSCAASGFTFTSTGISWVRQAPGKGLEWVGRIYPTNGSTNYADSVKGRFTISADTSKNTAYLQMNSLRAEDTAVYYCARTYGIYDLYVDYTEYVMDYWGQGTLVTVSSGGSSRSSSSGGGGSGGGGDIQMTQSPSSLSASGGSGQITVTCRASGFYPWNITLSWRQDGVSLSHDTQQWGDVLPDGQGTYQTWVATRISQGEEQRFTCYMEHSGQHSTHPVPSGKGSHHHHHH |  |  | 0.5 nM | 9e-05 s⁻¹ | 230000 M⁻¹ s⁻¹ | 38 fold | 0.4 nM | 15 fold | ~30 fold | 18 fold | IC50 (read off the curve) (mouse NKG2D-Fc): ~1 nM |
| α1-α2 variant 17 (designed binder, His-tagged protein from insect cells, modified α1-α2 domain with an attached polypeptide) EPHSLRYNLTVLSWDGSVQSGFLTEVHLDGQPFLRCDRQKCRAKPQGQWAEDVLGNKTWDRETRDLTLWGKDLRMTLAHIKDQKEGLHSLQEIRVCEIHEDNSTRSSQHFYYDGELFLSQNLETLEWTMPQSSRAQTLAMNVRNFLKEDAMETDTHYHAMRADCLQELRRYLKSGVVLRRTVPPMVQVTRSEASGGSGDRVTITCRASQDVSTAVAWYQQKPGKAPKLLIYSASFLYSGVPSRFSGSGSGTDFTLTISSLQPEDFATYYCQQSYTTPPTFGQGTKVEIKGGSSRSSSSGGGGSGGGGEVQLVESGGGLVQPGGSLRLSCAASGFTFTSTGISWVRQAPGKGLEWVGRIYPTNGSTNYADSVKGRFTISADTSKNTAYLQMNSLRAEDTAVYYCARTYGIYDLYVDYTEYVMDYWGQGTLVTVSSGGSSRSSSSGGGGSGGGGDIQMTQSPSSLSASGGSGQITVTCRASGFYPWNITLSWRQDGVSLSHDTQQWGDVLPDGQGTYQTWVATRISQGEEQRFTCYMEHSGQHSTHPVPSGKGSHHHHHH |  |  | 0.6 nM | 7e-05 s⁻¹ | 200000 M⁻¹ s⁻¹ | 32 fold | 0.4 nM | 15 fold | ~30 fold | 18 fold | IC50 (read off the curve) (mouse NKG2D-Fc): ~1 nM |
| α1-α2 variant 16 (designed binder, His-tagged protein from insect cells, modified α1-α2 domain with an attached polypeptide) EPHSLRYNLTVLSWDGSVQSGFLTEVHLDGQPFLRCDRQKCRAKPQGQWAEDVLGNKTWDRETRDLTGWGKDLRMTLAHIKDQKEGLHSLQEIRVCEIHEDNSTRSSQHFYYDGELFLSQNLETLEWTMPQSSRAQTLAMNVRNFLKEDAMETDTHYHAMRADCLQELRRYLKSGVVLRRTVPPMVQVTRSEASGGSGDRVTITCRASQDVSTAVAWYQQKPGKAPKLLIYSASFLYSGVPSRFSGSGSGTDFTLTISSLQPEDFATYYCQQSYTTPPTFGQGTKVEIKGGSSRSSSSGGGGSGGGGEVQLVESGGGLVQPGGSLRLSCAASGFTFTSTGISWVRQAPGKGLEWVGRIYPTNGSTNYADSVKGRFTISADTSKNTAYLQMNSLRAEDTAVYYCARTYGIYDLYVDYTEYVMDYWGQGTLVTVSSGGSSRSSSSGGGGSGGGGDIQMTQSPSSLSASGGSGQITVTCRASGFYPWNITLSWRQDGVSLSHDTQQWGDVLPDGQGTYQTWVATRISQGEEQRFTCYMEHSGQHSTHPVPSGKGSHHHHHH |  |  | 0.7 nM | 9e-05 s⁻¹ | 200000 M⁻¹ s⁻¹ | 27 fold | 0.5 nM | 15 fold | ~30 fold | 18 fold |  |
| M13 phage pKK100 displaying MICA α3 domain with loop 1 insert 3.2sp (designed binder, not shown: large carriers) TVPPMVNVTSGGSGGGSTSRGDHPRTQSGGSGGGVTCRASGFYPWNITLSWRQDGVSLSHDTQQWGDVLPDGNGTYQTWVATRICQGEEQRFTCYMEHSGNHSTHPVPSGK | 0.186 OD | 0.201 OD |  |  |  |  |  |  |  |  |  |
| M13 phage pKK109 displaying MICA α3 domain with tight loop 1 insert T-3.3 (designed binder, not shown: large carriers) TVPPMVNRVPRGDSDLTCRASGFYPWNITLSWRQDGVSLSHDTQQWGDVLPDGNGTYQTWVATRICQGEEQRFTCYMEHSGNHSTHPVPSGK | 0.167 OD | 0.23 OD |  |  |  |  |  |  |  |  |  |
